Earlier results as cited in publication PMC6934062.

Target: TDP-43 NTD (Homo sapiens) (UniProt Q13148)

For TDP-43 NTD (from UniProt Q13148), the Kd is listed as 70 µM.
